Experimental data from patent US20210388087A1 (Chugai, published 2021).

Target: T1, Human CD137 ECD (human)
T1 construct: also called 4-1BB
Experiment: single mutant vs template dBBDu183H

T1 sequence (chain, as listed by the source limits assumed): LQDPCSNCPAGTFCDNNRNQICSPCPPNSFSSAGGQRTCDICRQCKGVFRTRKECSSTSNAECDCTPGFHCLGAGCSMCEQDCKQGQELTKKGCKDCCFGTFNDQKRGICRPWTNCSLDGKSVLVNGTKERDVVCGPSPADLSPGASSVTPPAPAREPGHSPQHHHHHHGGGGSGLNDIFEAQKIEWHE

Row | fold change of affinity [fold] | Binder
1 | 0 | H183/L072 VH P100eL (antibody, name in Kabat numbering, V domains shown) VH: QVQLVESGGGLVQPGRSLRLSCAASGFTFSNAWMHWVRQAPGKGLEWVAQIKDKGNAYAAYYAPSVKGRFTISRDDSKNSIYLQMNSLKTEDTAVYYCHYVHYASASTVLLAFGVDAWGQGTTVTVSS VL: DIVMTQSPLSLPVTPGEPASISCQASQELVHMNRNTYLHWYQQKPGQAPRLLIYKVSNRFPGVPDRFSGSGSGTDFTLKISRVEAEDVGVYYCAQGTSVPFTFGQGTKLEIK
2 | 0.5 | H183/L072 VH Q50E (antibody, name in Kabat numbering, V domains shown) VH: QVQLVESGGGLVQPGRSLRLSCAASGFTFSNAWMHWVRQAPGKGLEWVAEIKDKGNAYAAYYAPSVKGRFTISRDDSKNSIYLQMNSLKTEDTAVYYCHYVHYASASTVLPAFGVDAWGQGTTVTVSS VL: DIVMTQSPLSLPVTPGEPASISCQASQELVHMNRNTYLHWYQQKPGQAPRLLIYKVSNRFPGVPDRFSGSGSGTDFTLKISRVEAEDVGVYYCAQGTSVPFTFGQGTKLEIK
3 | 0.3 | H183/L072 VH Q50V (antibody, name in Kabat numbering, V domains shown) VH: QVQLVESGGGLVQPGRSLRLSCAASGFTFSNAWMHWVRQAPGKGLEWVAVIKDKGNAYAAYYAPSVKGRFTISRDDSKNSIYLQMNSLKTEDTAVYYCHYVHYASASTVLPAFGVDAWGQGTTVTVSS VL: DIVMTQSPLSLPVTPGEPASISCQASQELVHMNRNTYLHWYQQKPGQAPRLLIYKVSNRFPGVPDRFSGSGSGTDFTLKISRVEAEDVGVYYCAQGTSVPFTFGQGTKLEIK
4 | 0.8 | H183/L072 VH Q50K (antibody, name in Kabat numbering, V domains shown) VH: QVQLVESGGGLVQPGRSLRLSCAASGFTFSNAWMHWVRQAPGKGLEWVAKIKDKGNAYAAYYAPSVKGRFTISRDDSKNSIYLQMNSLKTEDTAVYYCHYVHYASASTVLPAFGVDAWGQGTTVTVSS VL: DIVMTQSPLSLPVTPGEPASISCQASQELVHMNRNTYLHWYQQKPGQAPRLLIYKVSNRFPGVPDRFSGSGSGTDFTLKISRVEAEDVGVYYCAQGTSVPFTFGQGTKLEIK
5 | 0.5 | H183/L072 VH Q50N (antibody, name in Kabat numbering, V domains shown) VH: QVQLVESGGGLVQPGRSLRLSCAASGFTFSNAWMHWVRQAPGKGLEWVANIKDKGNAYAAYYAPSVKGRFTISRDDSKNSIYLQMNSLKTEDTAVYYCHYVHYASASTVLPAFGVDAWGQGTTVTVSS VL: DIVMTQSPLSLPVTPGEPASISCQASQELVHMNRNTYLHWYQQKPGQAPRLLIYKVSNRFPGVPDRFSGSGSGTDFTLKISRVEAEDVGVYYCAQGTSVPFTFGQGTKLEIK
6 | 0.6 | H183/L072 VH Q50H (antibody, name in Kabat numbering, V domains shown) VH: QVQLVESGGGLVQPGRSLRLSCAASGFTFSNAWMHWVRQAPGKGLEWVAHIKDKGNAYAAYYAPSVKGRFTISRDDSKNSIYLQMNSLKTEDTAVYYCHYVHYASASTVLPAFGVDAWGQGTTVTVSS VL: DIVMTQSPLSLPVTPGEPASISCQASQELVHMNRNTYLHWYQQKPGQAPRLLIYKVSNRFPGVPDRFSGSGSGTDFTLKISRVEAEDVGVYYCAQGTSVPFTFGQGTKLEIK
7 | 1.5 | H183/L072 VH Q50M (antibody, name in Kabat numbering, V domains shown) VH: QVQLVESGGGLVQPGRSLRLSCAASGFTFSNAWMHWVRQAPGKGLEWVAMIKDKGNAYAAYYAPSVKGRFTISRDDSKNSIYLQMNSLKTEDTAVYYCHYVHYASASTVLPAFGVDAWGQGTTVTVSS VL: DIVMTQSPLSLPVTPGEPASISCQASQELVHMNRNTYLHWYQQKPGQAPRLLIYKVSNRFPGVPDRFSGSGSGTDFTLKISRVEAEDVGVYYCAQGTSVPFTFGQGTKLEIK
8 | 0.3 | H183/L072 VH Q50D (antibody, name in Kabat numbering, V domains shown) VH: QVQLVESGGGLVQPGRSLRLSCAASGFTFSNAWMHWVRQAPGKGLEWVADIKDKGNAYAAYYAPSVKGRFTISRDDSKNSIYLQMNSLKTEDTAVYYCHYVHYASASTVLPAFGVDAWGQGTTVTVSS VL: DIVMTQSPLSLPVTPGEPASISCQASQELVHMNRNTYLHWYQQKPGQAPRLLIYKVSNRFPGVPDRFSGSGSGTDFTLKISRVEAEDVGVYYCAQGTSVPFTFGQGTKLEIK
9 | 2.6 | H183/L072 VH Q50F (antibody, name in Kabat numbering, V domains shown) VH: QVQLVESGGGLVQPGRSLRLSCAASGFTFSNAWMHWVRQAPGKGLEWVAFIKDKGNAYAAYYAPSVKGRFTISRDDSKNSIYLQMNSLKTEDTAVYYCHYVHYASASTVLPAFGVDAWGQGTTVTVSS VL: DIVMTQSPLSLPVTPGEPASISCQASQELVHMNRNTYLHWYQQKPGQAPRLLIYKVSNRFPGVPDRFSGSGSGTDFTLKISRVEAEDVGVYYCAQGTSVPFTFGQGTKLEIK
10 | 3.1 | H183/L072 VH Q50Y (antibody, name in Kabat numbering, V domains shown) VH: QVQLVESGGGLVQPGRSLRLSCAASGFTFSNAWMHWVRQAPGKGLEWVAYIKDKGNAYAAYYAPSVKGRFTISRDDSKNSIYLQMNSLKTEDTAVYYCHYVHYASASTVLPAFGVDAWGQGTTVTVSS VL: DIVMTQSPLSLPVTPGEPASISCQASQELVHMNRNTYLHWYQQKPGQAPRLLIYKVSNRFPGVPDRFSGSGSGTDFTLKISRVEAEDVGVYYCAQGTSVPFTFGQGTKLEIK
11 | 0 | H183/L072 VH P100eM (antibody, name in Kabat numbering, V domains shown) VH: QVQLVESGGGLVQPGRSLRLSCAASGFTFSNAWMHWVRQAPGKGLEWVAQIKDKGNAYAAYYAPSVKGRFTISRDDSKNSIYLQMNSLKTEDTAVYYCHYVHYASASTVLMAFGVDAWGQGTTVTVSS VL: DIVMTQSPLSLPVTPGEPASISCQASQELVHMNRNTYLHWYQQKPGQAPRLLIYKVSNRFPGVPDRFSGSGSGTDFTLKISRVEAEDVGVYYCAQGTSVPFTFGQGTKLEIK
12 | 0.8 | H183/L072 VH Q50L (antibody, name in Kabat numbering, V domains shown) VH: QVQLVESGGGLVQPGRSLRLSCAASGFTFSNAWMHWVRQAPGKGLEWVALIKDKGNAYAAYYAPSVKGRFTISRDDSKNSIYLQMNSLKTEDTAVYYCHYVHYASASTVLPAFGVDAWGQGTTVTVSS VL: DIVMTQSPLSLPVTPGEPASISCQASQELVHMNRNTYLHWYQQKPGQAPRLLIYKVSNRFPGVPDRFSGSGSGTDFTLKISRVEAEDVGVYYCAQGTSVPFTFGQGTKLEIK
13 | 1.7 | H183/L072 VH Q50W (antibody, name in Kabat numbering, V domains shown) VH: QVQLVESGGGLVQPGRSLRLSCAASGFTFSNAWMHWVRQAPGKGLEWVAWIKDKGNAYAAYYAPSVKGRFTISRDDSKNSIYLQMNSLKTEDTAVYYCHYVHYASASTVLPAFGVDAWGQGTTVTVSS VL: DIVMTQSPLSLPVTPGEPASISCQASQELVHMNRNTYLHWYQQKPGQAPRLLIYKVSNRFPGVPDRFSGSGSGTDFTLKISRVEAEDVGVYYCAQGTSVPFTFGQGTKLEIK
14 | 0.8 | H183/L072 VH Q50S (antibody, name in Kabat numbering, V domains shown) VH: QVQLVESGGGLVQPGRSLRLSCAASGFTFSNAWMHWVRQAPGKGLEWVASIKDKGNAYAAYYAPSVKGRFTISRDDSKNSIYLQMNSLKTEDTAVYYCHYVHYASASTVLPAFGVDAWGQGTTVTVSS VL: DIVMTQSPLSLPVTPGEPASISCQASQELVHMNRNTYLHWYQQKPGQAPRLLIYKVSNRFPGVPDRFSGSGSGTDFTLKISRVEAEDVGVYYCAQGTSVPFTFGQGTKLEIK
15 | 2 | H183/L072 VH Q50T (antibody, name in Kabat numbering, V domains shown) VH: QVQLVESGGGLVQPGRSLRLSCAASGFTFSNAWMHWVRQAPGKGLEWVATIKDKGNAYAAYYAPSVKGRFTISRDDSKNSIYLQMNSLKTEDTAVYYCHYVHYASASTVLPAFGVDAWGQGTTVTVSS VL: DIVMTQSPLSLPVTPGEPASISCQASQELVHMNRNTYLHWYQQKPGQAPRLLIYKVSNRFPGVPDRFSGSGSGTDFTLKISRVEAEDVGVYYCAQGTSVPFTFGQGTKLEIK
